The record followed here is US20210261677A1 (ORICELL THERAPEUTICS, published 2021).

Positions count from the first letter of the chain named. Like-named read-outs stand apart in the source and are kept apart here.

Assay [1] has as its target T1, recombinant human PD-L1-Fc protein (Origincell Therapeutics Co., Ltd.) (human, UniProt Q9NZQ7 19-238, limits assumed).
T1 construct: Labeled with biotin (EZ-Link Sulfo-NHS-LC-Biotin) for the BLI assays; unlabeled in the phage ELISA; also called Human PD-L1-Fc-Biotin; not shown: Fc part
In words: BLI (Octet RED384), biotinylated antigen on SA sensor, antibody in solution. As to the method:
(§1) The antigen-antibody binding kinetics were analyzed by a biofilm interference (BLI) technology, using a molecular interaction analyzer (Octet RED384, purchased from Pall ForteBio Analytics Co., Ltd.) and using a PBS buffer containing 0.1% BSA and 0.02% Tween 20. A biotin-coupled antigen protein with a concentration of 50 nM was fixed with the SA sensor (Pall ForteBio Analytics Co., Ltd.), and bound at 1500 rpm for 10 minutes; then it was bound with the double-diluted antibody solution at 1500 rpm for 10 minutes; and finally dissociated at 1500 rpm for 10 minutes. The obtained results would be analyzed by Octet Data Analysis 9.0 software (Pall ForteBio Analytics Co., Ltd.) to give the KD, Kₒₙ (1/Ms) and Koff (1/s).
On the technique in general: BLI is a label-free optical method that tracks binding on a fibre tip over time.

The target of assay [2] is T2, recombinant mouse PD-L1-Fc protein (M5251, ACROBiosystems Inc.) (mouse, UniProt Q9EP73 19-238).
T2 construct: Bought; Labeled with biotin for the BLI assays; unlabeled in the phage ELISA; also called Mouse PD-L1-Fc-Biotin; not shown: Fc part
T2 sequence (Q9EP73 19-238 limits assumed): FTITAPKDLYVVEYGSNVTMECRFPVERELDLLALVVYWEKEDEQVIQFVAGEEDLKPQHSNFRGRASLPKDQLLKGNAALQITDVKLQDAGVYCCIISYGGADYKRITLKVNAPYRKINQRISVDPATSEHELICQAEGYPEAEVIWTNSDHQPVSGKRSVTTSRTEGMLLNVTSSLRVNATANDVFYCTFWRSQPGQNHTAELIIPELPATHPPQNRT
Described as above. As to the method: as §1

Assay [3] deals with T3, recombinant Macaca fascicularis PD-L1-Fc (90251-CO2H, Sino Biological Inc.) (Macaca fascicularis, UniProt G7PSE7 19-239).
T3 construct: Bought; also called Macaca Fascicularis PD-L1-Fc-Biotin; not shown: Fc part
T3 sequence (G7PSE7 entry or part of it): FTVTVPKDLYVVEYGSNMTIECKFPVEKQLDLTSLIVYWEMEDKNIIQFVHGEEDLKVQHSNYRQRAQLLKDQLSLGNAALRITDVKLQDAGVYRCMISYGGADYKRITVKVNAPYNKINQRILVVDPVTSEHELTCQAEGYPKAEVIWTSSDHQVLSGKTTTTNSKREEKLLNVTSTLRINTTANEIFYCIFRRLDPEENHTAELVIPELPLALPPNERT
Described as above. As to the method:
as §1

In assay [4] the target is T4, recombinant dog PD-L1-Fc (70110-DO2H, Sino Biological Inc.) (dog, UniProt E2RKZ5 19-236, Biotinylated on lysines/amines (EZ-Link Sulfo-NHS-LC-Biotin); positions not defined).
T4 construct: Bought; also called Dog PD-L1-Fc-Biotin; canine PD-L1; not shown: Fc part and any linker of the bought fusion (Sino Biological 70110-DO2H)
T4 sequence: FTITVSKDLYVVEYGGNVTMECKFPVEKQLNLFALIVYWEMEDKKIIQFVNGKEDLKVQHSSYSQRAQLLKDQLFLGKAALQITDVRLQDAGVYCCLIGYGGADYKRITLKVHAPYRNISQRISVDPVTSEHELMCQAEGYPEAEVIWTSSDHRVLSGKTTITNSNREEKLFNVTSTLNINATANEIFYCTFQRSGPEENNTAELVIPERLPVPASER
The description is as above. As to the method:
as §1

In assay [5] the target is T5, human PD-L1 on cells (CHO cells that stably expressed human PD-L1; MDA-MB-231 cells) (human, UniProt Q9NZQ7 19-290).
T5 construct: whole, on cells; Stably expressed on CHO cells; also called CHO cells expressing human PD-L1
T5 sequence (Q9NZQ7 19-290): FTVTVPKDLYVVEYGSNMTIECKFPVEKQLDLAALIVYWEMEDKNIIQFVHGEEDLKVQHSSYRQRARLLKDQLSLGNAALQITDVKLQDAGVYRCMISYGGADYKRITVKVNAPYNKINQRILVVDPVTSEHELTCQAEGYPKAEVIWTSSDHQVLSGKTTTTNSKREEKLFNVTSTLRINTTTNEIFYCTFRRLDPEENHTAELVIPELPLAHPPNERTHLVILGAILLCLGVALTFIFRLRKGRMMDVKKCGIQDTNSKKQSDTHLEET
The assay is described as follows: flow cytometry competition: biotin-labelled human PD-1-Fc at a subsaturated concentration on CHO cells stably expressing human PD-L1, antibody titrated, streptavidin R-PE detection. Here is the method:
(§2) After cell washing, Streptavidin R-PE Conjugate (life technology, SA10041) was added and incubated (4° C., 30 min). After cell washing, the fluorescence intensity was detected by a flow cytometer (Intellicyt iQue Screener).

The target in assay [6] is T6, mouse PD-L1 on CHO cells that stably expressed mouse PD-L1 (mouse, UniProt Q9EP73 19-290).
T6 construct: whole, on cells; also called CHO cells expressing mouse PD-L1
T6 sequence (Q9EP73 19-290): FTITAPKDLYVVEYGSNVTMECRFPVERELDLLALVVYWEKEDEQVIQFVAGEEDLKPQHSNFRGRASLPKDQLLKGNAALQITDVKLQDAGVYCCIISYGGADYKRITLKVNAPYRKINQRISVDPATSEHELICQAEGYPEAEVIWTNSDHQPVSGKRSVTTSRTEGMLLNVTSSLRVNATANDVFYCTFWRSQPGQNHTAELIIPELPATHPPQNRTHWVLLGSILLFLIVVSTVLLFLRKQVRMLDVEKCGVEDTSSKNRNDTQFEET
The assay is described as follows: flow cytometry competition: biotin-labelled mouse PD-1-Fc at a subsaturated concentration on CHO cells stably expressing mouse PD-L1, antibody titrated, streptavidin R-PE detection. As to the method:
After cell washing, Streptavidin R-PE Conjugate (life technology, SA10041) was added and incubated (4° C., 30 min). After cell washing, the fluorescence intensity was detected by flow cytometer (Intellicyt iQue Screener).
Background: In flow cytometry, cells or beads pass a laser one at a time.

Assay [7] addresses T7, recombinant human PD-L1-His protein (Origincell Therapeutics Co., Ltd.) (human, UniProt Q9NZQ7 19-238, limits assumed).
T7 construct: not shown: His tag
The assay is described as follows: BLI (Octet RED384), antibody on AHC sensor, PD-L1-His in solution.

The target of assay [8] is T5, human PD-L1 on cells (CHO cells that …). The assay is described as follows: flow cytometry on MDA-MB-231 cells (human PD-L1), anti-human IgG-Fc DyLight 650 detection. Here is the method:
Human breast cell strain MDA-MB-231 (Shanghai Chinese Academy of Sciences Cell Library) highly expresses the human PD-L1 molecule. […] After cell washing, Goat F(ab′)₂ Anti-Human IgG-Fc (DyLight 650) (ab98593, abcam) was added and incubated at 4° C. for 30 min. After cell washing, the fluorescence intensity was detected by a flow cytometer (Intellicyt iQue Screener).

Assay [9] shares this target. In words: flow cytometry on CHO cells stably expressing human PD-L1, anti-human IgG-Fc DyLight 650 detection. Here is the method: The mixture was mixed well and incubated at 4° C. for 1 hr. After cell washing, Goat F(ab)₂ Anti-Human IgG-Fc (DyLight 650) (ab98593, Abcam) was added and incubated at 4° C. for 30 min. After cell washing, the fluorescence intensity was detected by a flow cytometer (Intellicyt iQue Screener).

The target in assay [10] is T6, mouse PD-L1 on CHO cells that stably …. The assay is described as follows: flow cytometry on CHO cells stably expressing mouse PD-L1, anti-human IgG-Fc DyLight 650 detection. Here is the method:
The mixture was mixed well and incubated at 4° C. for 1 hr. After cell washing, Goat F(ab′)₂ Anti-Human IgG-Fc (DyLight 650) (ab98593) was added and incubated at 4° C. for 30 min. After cell washing, the fluorescence intensity was detected by a flow cytometer (Intellicyt iQue Screener).

Assay [11] deals with T5, human PD-L1 on cells (CHO cells that …). The assay is described as follows: flow cytometry on CHO cells stably expressing human PD-L1, anti-human IgG-Fc DyLight 650 detection. As to the method: After cell washing, Goat F(ab′)₂ Anti-Human IgG-Fc (DyLight 650) (ab98593, abcam) was added and incubated at 4° C. for 30 min. After cell washing, the fluorescence intensity was detected by a flow cytometer (Intellicyt iQue Screener).
This is another data set of the same source.

The target in assay [12] is T6, mouse PD-L1 on CHO cells that stably …. The assay is described as follows: flow cytometry competition: biotin-labelled mouse PD-1-Fc at a subsaturated concentration on CHO cells stably expressing mouse PD-L1, antibody titrated, streptavidin R-PE detection. As to the method:
as §2
The source holds these as a separate data set.

Assay [13] concerns the target T5, human PD-L1 on cells (CHO cells that …). The assay is described as follows: flow cytometry competition: biotin-labelled human PD-1-Fc at a subsaturated concentration on CHO cells stably expressing human PD-L1, antibody titrated, streptavidin R-PE detection. Here is the method: as §2
The source holds these as a separate data set.

In assay [14] the target is T6, mouse PD-L1 on CHO cells that stably …. In words: flow cytometry competition: biotin-labelled mouse PD-1-Fc at a subsaturated concentration on CHO cells stably expressing mouse PD-L1, antibody titrated, streptavidin R-PE detection. Here is the method:
as §2
The source holds these as a separate data set.

T7 sequence (Q9NZQ7 19-238 limits assumed): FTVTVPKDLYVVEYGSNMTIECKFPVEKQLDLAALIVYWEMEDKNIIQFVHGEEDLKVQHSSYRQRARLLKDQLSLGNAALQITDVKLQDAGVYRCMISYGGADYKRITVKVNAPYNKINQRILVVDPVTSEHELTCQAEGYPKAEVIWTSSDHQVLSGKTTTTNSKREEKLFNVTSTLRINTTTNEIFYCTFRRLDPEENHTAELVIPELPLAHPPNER
T1 sequence (Q9NZQ7 19-238 limits assumed): as above

B1: anti-PD-L1 fully human antibody YN-002 (antibody, human IgG1, lambda, V domains shown)
VH: QVQLVQSGAEVRKPGSSVKVSCKASGGTFSSYAISWVRQAPGQGLEWMGRIIPILGIANYAQKFQGRVTITADKSTSTAYMELSSLRSEDTAVYYCARTMDGYSYGNFDYWGQGTLVTVSS
VL: QSALTQPASVSGSPGQSITISCTGTSSDVGGYNYVSWYQQHPGKAPKLLIYGNSNRPSGVPDRFSGSKSGTSASLAITGLQAEDEADYYCQSYDSSLSGSVFGGGTKLTVLG
notes: Intact IgG1,lambda antibody of phage antibody 1B10, expressed in 293F cells
The Kd is a measure of binding affinity in units of concentration. In general, koff refers to a measure of how fast the partners let go of each other. By kon is commonly meant the rate constant with which the complex forms. As for B1, the Kd in assay [1] came out at 0.888 nM; in assay [2], 1.72 nM; in assay [3], 1.07 nM; in [4] it was 0.743 nM. Besides, the koff in [1] amounted to 0.000594 s⁻¹; in assay [2], 0.00168 s⁻¹; in assay [3] it was 0.0019 s⁻¹; in [4] it was 0.000759 s⁻¹. The kon in assay [1] is 669000 M⁻¹ s⁻¹; in assay [2], 977000 M⁻¹ s⁻¹; in [3], 1.77e+06 M⁻¹ s⁻¹; in assay [4], 1.02e+06 M⁻¹ s⁻¹. The figures for the “IC50 (read off the curve)” value in [5] and in assay [6] were approximately 1 µg/mL and approximately 0.1 µg/mL, respectively.

B2: PD-L1 antibody YN-036 (antibody, human IgG1, lambda, V domains shown)
VH: B1 VH with R12K, G26R, T28P, S31T, D101G, G102E, F108Y
VL: QSALTQPASVSGSPGQSITISCTGTVSEVGGYNEVSWYQQHPGKAPKLMIYGNSNRPSGVSNRFSGSKSGNTASLTISGLQAEDEADYYCQSYDSSLSGTVFGGGTKLTVLG
notes: full-length IgG1,lambda
By EC50 (read off the curve) is commonly meant the concentration at which the effect is half-maximal. In the case of B2, the Kd in assay [7] turned out to be 0.474 nM. For the same molecule, the koff in assay [7] was determined as 0.000175 s⁻¹. Further, the kon in assay [7] stood at 369000 M⁻¹ s⁻¹. The half-maximal effective concentration (EC50 (read off the curve)) was approximately 1 nM in [8], 3 to 4 nM in [9], approximately 4 nM in assay [10] and approximately 4 nM in assay [11]. Besides, the “IC50 (read off the curve)” value is approximately 3 nM in [5], approximately 2 nM in assay [12], approximately 2 nM in assay [13] and approximately 5 nM in assay [14].

B3: PD-L1 antibody YN-035 (antibody, human IgG1, lambda, V domains shown)
VH: B1 VH with R12K, G26R, T28P, S31T, D101E, S104G, Y105F
VL: B2 VL
notes: full-length IgG1,lambda
For the molecule B3, the Kd in [7] came to 0.452 nM. Moreover, in assay [7], the koff came to 0.000193 s⁻¹. Besides, the kon in assay [7] was determined as 427000 M⁻¹ s⁻¹. Besides, the “EC50 (read off the curve)” value is approximately 0.9 nM in [8], 3 to 4 nM in [9], approximately 6 nM in assay [10] and approximately 4 nM in assay [11]. The “IC50 (read off the curve)” value was approximately 3 nM in assay [5], approximately 3 nM in assay [12], approximately 2 nM in assay [13] and approximately 5 nM in assay [14].

B4: anti-PD-L1 fully human antibody YN-003 (antibody, human IgG1, lambda, V domains shown)
VH: B1 VH with R12K
VL: B2 VL with V26S, E28D, E34Y, T100S
notes: Germline version of YN-002; IgG1,lambda
In the case of B4, the Kd in assay [1] was 0.408 nM; in assay [2] it was 0.996 nM; in assay [3], 0.654 nM; in [4], 0.594 nM. The koff in [1] came to 0.000611 s⁻¹; in assay [2], 0.000997 s⁻¹; in [3], 0.00136 s⁻¹; in assay [4] it was 0.000514 s⁻¹. The kon in assay [1] is 1.5e+06 M⁻¹ s⁻¹; in [2], 1.03e+06 M⁻¹ s⁻¹; in assay [3], 2.08e+06 M⁻¹ s⁻¹; in [4], 864000 M⁻¹ s⁻¹. In addition, the “IC50 (read off the curve)” value was approximately 0.2 µg/mL in assay [5] and approximately 0.06 µg/mL in assay [6].
